The values that follow come from publication PMC3233575.

Experiment [1] has as its target CHO-expressed soluble CD4 (UniProt P01730).
The target in experiment [2] is soluble recombinant DC-SIGN, entire extracellular domain (residues 70-404) (UniProt Q9NNX6). The experiment in a line: acoustic biosensor (RapID4); soluble DC-SIGN amine-coupled, BSA on the control cell; purified or unpurified inactivated virus 34-250 nM (by p24, 2500 gag per virion); Langmuir kinetic model.
For experiment [3], the target named is HIV-1 BX08 gp140 (soluble, trimeric ectodomain of the envelope glycoprotein, residues 31-663) (HIV-1 strain 92FR_BX08 (clade B, R5)).
Experiment [4] concerns the target HIV-1 IIIB virus particles (envelope glycoprotein on virions) (HIV-1 strain IIIB (clade B)) (UniProt P03375).
Experiment [5] concerns the target HIV-1 IIIB gp140 (soluble, trimeric ectodomain of the envelope glycoprotein, residues 31-665) (HIV-1 strain IIIB (clade B, X4), molecular clone pBH10) (UniProt P03375). Nature of the experiment: SPR; gp140 immobilised by direct amine coupling on CM5 (560 RU BX08, 620 RU IIIB); fluid phase DC-SIGN 50-600 nM or Langerin 25-200 nM; HBS-P pH 7.4 with 10 mM CaCl2; heterogeneous analyte model (KD2 oligomer, KD1 monomer). (SPR reads the build-up and loss of mass on a sensor chip optically.)

The target of experiment [6] is HIV-1 BX08 gp140 (soluble, trimeric ectodomain of the envelope glycoprotein, residues 31-663) (HIV-1 strain 92FR_BX08 (clade B, R5)). Described as above.

pKd: −log10 of the molar value.

soluble recombinant DC-SIGN, entire extracellular domain (residues 70-404) (from UniProt Q9NNX6-1 70-404) (domain or fragment), sequence (Q9NNX6 70-404): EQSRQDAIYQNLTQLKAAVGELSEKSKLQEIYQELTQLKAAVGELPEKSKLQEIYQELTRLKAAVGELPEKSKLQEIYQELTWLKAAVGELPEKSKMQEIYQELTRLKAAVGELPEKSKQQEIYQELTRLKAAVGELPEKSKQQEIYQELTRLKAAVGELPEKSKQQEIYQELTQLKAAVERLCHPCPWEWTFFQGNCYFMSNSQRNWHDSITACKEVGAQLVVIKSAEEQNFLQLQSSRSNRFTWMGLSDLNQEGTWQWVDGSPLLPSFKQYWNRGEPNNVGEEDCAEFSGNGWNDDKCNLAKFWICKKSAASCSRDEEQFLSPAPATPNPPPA
soluble recombinant Langerin, full extracellular domain (residues 56-328), sequence (Q9UJ71 56-328): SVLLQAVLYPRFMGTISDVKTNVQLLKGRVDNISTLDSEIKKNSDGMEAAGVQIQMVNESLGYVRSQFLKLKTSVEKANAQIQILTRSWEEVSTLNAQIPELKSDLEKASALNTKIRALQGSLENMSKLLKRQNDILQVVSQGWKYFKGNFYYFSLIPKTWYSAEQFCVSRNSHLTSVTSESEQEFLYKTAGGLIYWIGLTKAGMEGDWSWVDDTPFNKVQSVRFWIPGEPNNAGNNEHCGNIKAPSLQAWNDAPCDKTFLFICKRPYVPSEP
soluble recombinant DC-SIGN, entire extracellular domain (residues 70-404) (UniProt Q9NNX6), sequence (Q9NNX6 70-404): as the sequence (Q9NNX6 70-404) above

For the substance “HIV-1 BX08 gp140 (soluble, trimeric ectodomain of the envelope glycoprotein, residues 31-663) (domain or fragment)”, the maximum enhancement of p24 release from PM1 cells infected with HIV-1 BX08 pre-incubated with soluble DC-SIGN at <1 nM, against no treatment in experiment [1] is 3.6 fold.
As a reminder, the pKd is −log10 of the Kd, conventionally taken in molar units. “HIV-1 IIIB virus particles (envelope glycoprotein on virions) (from UniProt P03375 33-511; P03375 512-856) (complex)”: the maximum enhancement of p24 release from PM1 cells infected with HIV-1 IIIB pre-incubated with soluble DC-SIGN at <1 nM, against no treatment in experiment [1] worked out at 15.3 fold. Moreover, in experiment [2], the negative-log Kd (pKd) was 7.02.
For the substance “HIV-1 IIIBx virus particles (envelope glycoprotein on virions), CD4-independent variant of IIIB (from UniProt P03375 33-511; P03375 512-856) (complex)”, the pKd in experiment [2] is 7.70.
Turning to “soluble recombinant DC-SIGN, entire extracellular domain (residues 70-404) (from UniProt Q9NNX6-1 70-404) (domain or fragment)”, the IC50 of soluble DC-SIGN for inhibition of HIV-1 BX08 replication in PM1 cells (p24 release, 10 days); pair said to be blocked: envelope protein with CD4 in experiment [3] is 0.0025 µM. The same substance registered an IC50 of soluble DC-SIGN for inhibition of HIV-1 IIIB replication in PM1 cells (p24 release, 10 days); pair said to be blocked: envelope protein with CD4 in experiment [4] of 0.004 µM. For the same substance, the results for the KD2 (tetrameric form, heterogeneous analyte model) in experiment [5] and in experiment [6] were 0.063 µM and 0.062 µM, respectively.
With “soluble recombinant Langerin, full extracellular domain (residues 56-328) (from UniProt Q9UJ71 56-328) (domain or fragment)”, the KD2 (trimeric form, heterogeneous analyte model) in experiment [5] came to 0.011 µM; in experiment [6] it was 0.024 µM.
